Source: the DeepSol protein solubility set

Test: soluble on expression in E. coli; label from the status in PepcDB or PDB records
In the case of “MARLARLGEPFALATVVASSGSSPRKAGAKMLIRGDGSALGTVGGGHVEQDTLAAARASLAEGAPRTLEFVLTEEHGYACGGSMSVFIEPQGRRPLLVMFGAGHVGRAVTALAHGCGFRVIVVDERPEYAVPALLPGADEIVCVPVGAAFARLTLDRESFAVIATPGHVHDFDAVRGCLATEVGFIGLLGSRRKREALMKTLTEEGYEAGRQARVVTPVGLDIGAQTPEEIAVSIVGQLVKLRRQA”, the “soluble on expression in E. coli” value is reported as “not soluble”. With “ADTMTFTAKNGNVTFDHKKHQTIVPDCAVCHGKTPGKIEGFGKEMAHGKSCKGCHEEMKKGPTKCGECHKK” the “soluble on expression in E. coli” value was “soluble”. With “MSTPFKMERGVKYRDAAKTSIIPVKNIDPNQDLLKKPEWMKIKLPASSAKIESIKNGMRRHGLHSVCEEASCPNLHECFNHGTATFMILGAICTRRCPFCDVAHGKPLPPDPEEPQKLAETIQDMKLKYVVITSVDRDDLPDRGAGHFSECVKAVRELNPNIKIEILVPDFRGRITQALEKLKDNPPDVFNHNLENVPRLYKEIRPGADYEWSLKLLREFKEIFPNIPTKSGLMVGLGETNEEILQVMQDLRDNGVTMLTLGQYLQPSRHHLPVARYVPPTEFDEFRDKANEMGFEHAACGPFVRSSYHADLQASGGLVKLEHHHHHH” the “soluble on expression in E. coli” value was “not soluble”. With “MAVPAASSIVSYGGAATSNFLTTPVTPFLAGFYNSNFVTDRINSCAPYRVDRIRKQLQDEEENGYPPADDRRRGALFCRSGTWLEMLPIENPDDGSTRVKVHGTKEESSKFSIVEFVSVAMSLVSIRGVETKNFICMDPSGKLYATPSSNYSTECVFLEEMMENYYNLYASCAYGDRFNPWYIELRRSGKPRRGPNSKKRRKASHFLVVHHDLDRLRSPVPNGNDVTDLVVASLFHQPPSHPLFRQQTVTKPPNPHRISNLRAKVEMTNQAEKQRLLEEKKRRREKKKRRREDRLRKEEQIREARRQELKSLREEELRRRYQQQQQQQASTQTRYNRPQNPANPYPTYRPLPTRSTVQSPRPAYNPYWQSPVTQAPHHNSHHHHHHHPRVSSSSDPQQRHQSQQHYLAQTVSNPNRQNVNYQRYP” the “soluble on expression in E. coli” value was “not soluble”. With “MKIGIVTGIPGVGKSTVLAKVKEILDNQGINNKIINYGDFMLATALKLGYAKDRDEMRKLSVEKQKKLQIDAAKGIAEEARAGGEGYLFIDTHAVIRTPSGYLPGLPSYVITEINPSVIFLLEADPKIILSRQKRDTTRNRNDYSDESVILETINFARYAATASAVLAGSTVKVIVNVEGDPSIAANEIIRSMK” the “soluble on expression in E. coli” value was “soluble”. With “MGSDKIHHHHHHMKHTQISRREFLKNIGMTGAGVLLAASPWLSAFSEAVNTSNEKCRLGVIGPGSRGRFLMSFLVQNPKVDIVALCDIYQPSIDEALKLAPKAKVYGDYRELLENNNIDAILVATPLSSHCKIVMDAFDAGKHVFCEKTIGFTMEECFRMYNKHRSTGKIFFTGQQRLFDPRYIKAMEMIHAGTFGEINAIRTFWYRNGDWRRPVPSANLERQINWRLYKEYSKGLMTELACHQLQIGSWALNKLPEKVMGHGAITYWKDGREVYDNVSCLYVFDDGVKMTFDSVISNQFYGLEEQIMGNLGTVEPEKGKYYFESIPPAPGFLQMINDWENKLFDTLPFAGTSWAPETANENKGELILGERPKSDGTSLLLEAFVEAVITRKQPARIAEEGYYASMLCLLGHQALQEEKTLYFPDEYKINYLNHQSKTSEAV” the “soluble on expression in E. coli” value was “not soluble”. For “MNFKLNNTLSNEINTLIIGIPEHLNQLERISFNHIDITESLERLKHQHIIGSKVGKIYTTAFDVQDQTYRLITVGLGNLKTRSYQDMLKIWGHLFQYIKSEHIEDTYLLMDSFISKYDQLSDVLMACGIQSERATYEFDHYKSSKKAPFKTNLNLISESLIELDFIHEGISIGQSINLARDFSNMPPNVLTPQTFAEDIVNHFKNTKVKVDVKDYDTLVSEGFGLLQAVGKGSKHKPRLVTITYNGKDKDEAPIALVGKGITYDSGGYSIKTKNGMATMKFDMCGAANVVGIIEAASRLQLPVNIVGVLACAENMINEASMKPDDVFTALSGETVEVMNTDAEGRLVLADAVFYANQYQPSVIMDFATLTGAAIVALGDDKAAAFESNSKVILNDILQISSEVDEMVFELPITATERASIKHSDIADLVNHTNGQGKALFAASFVTHFSGQTPHIHFDIAGPATTNKASYNGPKGPTGFMIPTIVQWLKQQ”, the “soluble on expression in E. coli” value was “not soluble”. For “MKIALMMENSQASKNAIIYNELSAVANEKGFPVFNVGMCDENDHHLTYIHLGIMASILLNANAVDFVVTGCGTGQGALMSLNIHPGVICGYCIDPADAFLFAQINNGNALSLPFAKGFGWGAELNVRFIFEKAFTGRKGEGYPPERKAPQVRNAGILNQVKAAVVKENYLDTLRAIDPELVKTAVSGPRFQQCLFENGQNKEIEAFVREMLG”, the “soluble on expression in E. coli” value was “not soluble”. In the case of “PGVGDYKGLLKWTSHNQYEKEVKKADEQYGKLYAKFADMPIEKVAKDPQAKQIAQNLFNTYCIQCHGSDAKGSKGFPNLTDSDWLWGGDPDKIHETIEKGRVATMPAWGPALGEEGVKDVAHYVMSLSKPEGQYDEERAARGQALFSGPPANCFTCHGDKGQGIQGLGPNLTDDVWLWGGTQKSIIETITNGRSSQMPAWGHFLDKDKLHIMTAYVWGLSDKDGKAPVKKAEPAPTPAPAAEPAASAPAEAAQAVSEAKPAAAEPKAEEKAAPAAKADGK”, the “soluble on expression in E. coli” value is reported as “not soluble”. With “MSSQIRQNYSTEVEAAVNRLVNLYLRASYTYLSLGFYFDRDDVALEGVCHFFRELAEEKREGAERLLKMQNQRGGRALFQDLQKPSQDEWGTTPDAMKAAIVLEKSLNQALLDLHALGSAQADPHLCDFLESHFLDEEVKLIKKMGDHLTNIQRLVGSQAGLGEYLFERLTLKHD” the “soluble on expression in E. coli” value was “soluble”. In the case of “MEKYPEIQQMRSKMREGDDTNEFKIRPLKGLSHPSGNLQMQRFQEDRRERIHSIRKRENQDGRLDLIGVVGEITVVIDDVVYEEEKLRKVVFTMKG”, the “soluble on expression in E. coli” value is reported as “not soluble”. In the case of “GAEFKEKPEAPTEQLDVACGQENLPVGAWPPGAAPAPFQYTPDHVVGPGADIDPTQITFPGCICVKTPCLPGTCSCLRHGENYDDNSCLRDIGSGGKYAEPVFECNVLCRCSDHCRNRVVQKGLQFHFQVFKTHKKGWGLRTLEFIPKGRFVCEYAGEVLGFSEVQRRIHLQTKSDSNYIIAIREHVYNGQVMETFVDPTYIGNIGRFLNHSCEPNLLMIPVRIDSMVPKLALFAAKDIVPEEELSYDYSGRYLNLTVSASKERLDHGKLRKPCYCGAKSCTAFLPFDSS”, the “soluble on expression in E. coli” value is reported as “soluble”. In the case of “MIRKCTDHGYFRGGSCQQCKRPGRYVLDDGREEKLGRFVSGTLRHFPASAGVKMDKYGWIDLNAFCEVMKKRYNWMRKEYLYALVESDEKGRYQISGPMIRARYGHSVNVDLDYDESDTPYVYYGASPEEVDVLLENGIFPIKQRYVHLSTTYEKAAEVALIHTESPVILQVDAFRAQEDGISLKLATDYIVLAEKIPPDYLFVLEDLEHHHHHH”, the “soluble on expression in E. coli” value is reported as “soluble”. For “TGILLANLGTPDAPTPEAVKRYLKQFLSDRRVVDTSRLLWWPLLRGVILPLRSPRVAKLYASVWMEDGSPLMVYSRQQQQALAQRLPDTPVALGMSYGSPSLESSVDELLAEHVDHIVVLPLYPQFSCSTVGAVWDELARILARKRSIPGISFIRDYADNHDYINALANSVRASFAKHGEPDLLLLSYHGIPQRYADEGDDYPQRCRTTTRELASALGMVPEKVMMTFQSRFGREPWLMPYTDETLKMLGEKGVGHIQVMCPGFAADCLETLEEIAEQNREVFLGAGGKKYEYIPALNATPEHIEMMANLV”, the “soluble on expression in E. coli” value was “not soluble”. In the case of “MKKIMTIFGTRPEAIKMAPLVKALEQEKMLEPIVVVTAQHREMLDSVLSTFEIKPKYDLNIMKSGQTLSEITSKSITQLEQVIQLEKPDMVLVHGDTMTTFAGGLAAFYNQVPIGHVEAGLRSYDKYSPFPEEVNRQLVGVLADLHFAPTKNAASHLLSEGKYSESVVVTGNTAIDAMKYTVDDNYKSNIMDKYHDKKFILMTAHRRENIGKPMENIFKAVRRLIDEYTDLALVYPMHKNPKVREVAQKILGSHDRIELIEPLDVVDFHNFAKKSYFILTDSGGIQEEAPSFNKPVLVLRSVTERPEGVEAGTLKVIGTNKQNVYQAAKELIDDERLYHQMSEASNPYGDGFASERIVNHIKYYLNLITEKPSDF”, the “soluble on expression in E. coli” value is reported as “not soluble”. For “LMTIKCLLLAVMVCPFFITACSDKYSEQDRVQAINNADAPFGAGLLTFQISSDTQLNSLNEISNSCALLFLQASDKNTLQDIMNNPVLIKQFFIGTGKVDGILKVDKYVAMPGQEITLHIDRNEGTKYVGVVAGYYPFPGKQHMLLLDIPVDVVEEGWWNKSLHASLLPLSKKISMGKESISMK”, the “soluble on expression in E. coli” value was “not soluble”. With “MAIKSPPTLIPLSHLSGEELQAHLRFNRVTDEKGRYLPFDELQYRIKKGENVDVAWTLTRLARNAAIQRINYCNEAGEQAGFNITPVIAEACELVDKRATALALKDQTERLRGAGAELSQLRLEEPITSSQLEGANTTTLVARKMLETGRSPRTEDEHMIAGNARLMAEIPHLLAEPLTPALIRQLHAIGMGGINDAKYRPGEFRETDDVVIADYDGNIVHQPPAAALLPERLEKVCQWLNSHEGYIHPLVRACILHFMLAHEHPFRDGNGRTSRALFYWYMLKSGYDVFKYISISRLLHAAPVKYAASYQYTESDGMDLTYFLEYQAGVIKRALQNWQQHIDEITQRSAKLDSVLFSSGVLKRLNPRQVTLLNVMLANPGKEYTVAEISASLGVSDNTVRADLRTIVKEGFAQEKKINDQQAVYFAHYPL” the “soluble on expression in E. coli” value was “not soluble”. For “MGSDKIHHHHHHMIRSLWIAKTGLDAQQMQMDVIANNLANVSTNGFKKTRAVFEDLLYQNIRQPGAQSSQQTQLPSGLQLGTGVRPVATERIHIQGNLQQTGNNKDVAISGEGFFQVLLPDGSTAYTRDGAFQLDNQGQLVTASGFTVQPAIIVPPNALSLTVGRDGTVSVVLPDNPNNAVQIGTFQLATFINPAGLQSRGENLYIETAASGPANINQPGLNGTGLLVHQYLETSNVNVAEELVSMIQTQRAYEINSKAISTSDQMLQRLSQL”, the “soluble on expression in E. coli” value was “not soluble”. With “MVSAPSIDTPSATTFDFDSSVFKKEKVTLSGHDEYIVRGGRNLFPLLPDAFKGIKQIGVIGWGSQAPAQAQNLKDSLTEAKSDVVVKIGLRKGSNSFAEARAAGFSEENGTLGDMWETISGSDLVLLLISDSAQADNYEKVFSHMKPNSILGLSHGFLLGHLQSLGQDFPKNISVIAVCPKGMGPSVRRLYVQGKEVNGAGINSSFAVHQDVDGRATDVALGWSIALGSPFTFATTLEQEYKSDIFGERGILLGAVHGIVECLFRRYTESGMSEDLAYKNTVECITGVISKTISTKGMLALYNSLSEEGKKDFQAAYSASYYPSMDILYECYEDVASGSEIRSVVLAGRRFYEKEGLPAFPMGKIDQTRMWKVGEKVRSVRPAGDLGPLYPFTAGVYVALMMAQIEILRKKGHSYSEIINESVIEAVDSLNPFMHARGVSFMVDNCSTTARLGSRKWAPRFDYILSQQALVAVDNGAPINQDLISNFLSDPVHEAIGVCAQLRPSVDISVTADADFVRPELRQA” the “soluble on expression in E. coli” value was “soluble”. For “MSLNLIKYGLTTAVQADLTKENGQILGRIIGQHRDWYQVITTAGERSAQVTGKLAYEAASPAAFPAVGDWVCLSSSADNQAQIEAIAPRQSVLARGAVNRQDGQIIATNINTIFICMSLNADFNVRRLERYLTIAWDSGALPVIVLTKADLCTDLATKLRAVADVSVGVPTITCSVETGQGLDELQPYLTTGQTVAFVGSSGVGKSTLINRLLGQDILATKSIRTDDNKGRHTTTSRQLIPLPTGACVIDTPGMRELQIFMGDLNQTFAEIAALATQCKFNDCTHTSEPGCAVRAAVEVGTVTSERLQSYQKLQREMSYQGEGHHHHHH”, the “soluble on expression in E. coli” value was “soluble”. For “ATTGTQGYTVVKNDWKKAVKQLQDGLKDNSIGKITVSFNDGVVGEVAPKSANKKADRDAAAEKLYNLVNTQLDKLGDGDYVDFSVDYNLENKIITNQADAEAIVTKLNSLNEKTLIDIATKDTFGMVSKTQDSEGKNVAATKALKVKDVATFGLKSGGSEDTGYVVEMKAGAVEDKYGKVGDSTAGIAINLPSTGLEYAGKGTTIDFNKTLKVDVTGGSTPSAVAVSGFVTKDDTDLAKSGTINVRVINAKEESIDIDASSYHMSLEHHHHHH”, the “soluble on expression in E. coli” value was “soluble”.
